Article PMC4169746 (Molecular cell, 2014)

Assays:
[1] = biological target: dephosphorylated IRAK4^FL (human) (UniProt Q9NWZ3); test: SEC-MALS
[2] = biological target: dephosphorylated IRAK4^KD (human) (UniProt Q9NWZ3); test: SEC-MALS
SEC-MALS = biological target: the molecule itself; test: SEC-MALS
AUC = biological target: the molecule itself; test: AUC

“dephosphorylated IRAK4^FL (from UniProt Q9NWZ3 1-460) (enzyme)” was tested. Which stoichiometry N [1] did it give?
The stoichiometry N was 2.

For “dephosphorylated IRAK4^KD (from UniProt Q9NWZ3 186-454) (domain or fragment)”, which stoichiometry N [2] is on record?
Its stoichiometry N is 2.

B1: IRAK4^KD-D311N (IRAK4 kinase domain, catalytically inactive, unphosphorylated) (domain or fragment, human, UniProt Q9NWZ3 164-460, looked up)
chain: RFHSFSFYELKNVTNNFDERPISVGGNKMGEGGFGVVYKGYVNNTTVAVKKLAAMVDITTEELKQQFDQEIKVMAKCQHENLVELLGFSSDGDDLCLVYVYMPNGSLLDRLSCLDGTPPLSWHMRCKIAQGAANGINFLHENHHIHRNIKSANILLDEAFTAKISDFGLARASEKFAQTVMTSRIVGTTAYMAPEALRGEITPKSDIYSFGVVLLEIITGLPAVDEHREPQLLLDIKEEIEDEEKTIEDYIDKKMNDADSTSVEAMYSVASQCLHEKKNKRPDIKKVQQLLQEMTAS
For B1, which “stoichiometry N” value (SEC-MALS) is on record?
The value was 2.

B2: IRAK4^KD-D311N Y262T (domain or fragment, human, UniProt Q9NWZ3 164-460, looked up)
chain: RFHSFSFYELKNVTNNFDERPISVGGNKMGEGGFGVVYKGYVNNTTVAVKKLAAMVDITTEELKQQFDQEIKVMAKCQHENLVELLGFSSDGDDLCLVTVYMPNGSLLDRLSCLDGTPPLSWHMRCKIAQGAANGINFLHENHHIHRNIKSANILLDEAFTAKISDFGLARASEKFAQTVMTSRIVGTTAYMAPEALRGEITPKSDIYSFGVVLLEIITGLPAVDEHREPQLLLDIKEEIEDEEKTIEDYIDKKMNDADSTSVEAMYSVASQCLHEKKNKRPDIKKVQQLLQEMTAS
Does B2 bind (SEC-MALS)?
Result: binds

B3: IRAK4^FL-D311N (full-length IRAK4, catalytically inactive, unphosphorylated) (enzyme, human, UniProt Q9NWZ3 1-460, looked up)
chain: MNKPITPSTYVRCLNVGLIRKLSDFIDPQEGWKKLAVAIKKPSGDDRYNQFHIRRFEALLQTGKSPTSELLFDWGTTNCTVGDLVDLLIQNEFFAPASLLLPDAVPKTANTLPSKEAITVQQKQMPFCDKDRTLMTPVQNLEQSYMPPDSSSPENKSLEVSDTRFHSFSFYELKNVTNNFDERPISVGGNKMGEGGFGVVYKGYVNNTTVAVKKLAAMVDITTEELKQQFDQEIKVMAKCQHENLVELLGFSSDGDDLCLVYVYMPNGSLLDRLSCLDGTPPLSWHMRCKIAQGAANGINFLHENHHIHRNIKSANILLDEAFTAKISDFGLARASEKFAQTVMTSRIVGTTAYMAPEALRGEITPKSDIYSFGVVLLEIITGLPAVDEHREPQLLLDIKEEIEDEEKTIEDYIDKKMNDADSTSVEAMYSVASQCLHEKKNKRPDIKKVQQLLQEMTAS
With B3 as the molecule, how does the Kd (AUC) read?
The Kd was 2500 ± 400 nM.
